Results reported in the RNAGym collection of RNA variant scans (doi:10.1093/molbev/msab373).

B1: Azoarcus group I ribozyme (parent)
chain: GUGCCUUGCGCCGGGAAACCACGCAAGGGAUGGUGUCAAAUUCGGCGAAACCUAAGCGCCCGCCCGGGCGUAUGGCAACGCCGAGCCAAGCUUCGGCGCCUGCGCCGAUGAAGGUGUAGAGACUAGACGGCACCCACCUAAGGCAAACGCUAUGGUGAAGGCAUAGUCCAGGGAGUGGCGAAAGUCACACAAACCGG

Variants of: B1
Assay: reverse-splicing fitness (ratio to wild type); higher = more active; in vitro selection; Mg2+ level not given
Summary of the method: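 An in vitro group I ribozyme library with randomized positions was T7-transcribed and gel-purified. In triplicate, 10 pmol RNA in EPPS pH 7.5 was reacted with 50 pmoles of a 30-nt RNA substrate for 1 h at 37 °C across several added MgCl2 levels (1–48 mM), then stopped with EDTA. Products were reverse transcribed from a substrate-complementary primer, PCR-amplified and sequenced (HiSeq 4000). Fitness is a variant's read proportion after selection over that before, normalised to wild type.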

Variant | reverse-splicing fitness
C82G A111C A120C A145C C150G C169U U176G | 0.00572
C82G A111C A120C A145C C150G U176A | 0.00528
C82G A111C A120C A145C C150G U176C | 0.00825
C82G A111C A120C A145C C150G U176G | 0.00325
C82G A111C A120C A145C C150U | 0.0168
C82G A111C A120C A145C C150U C169A | 0.00728
C82G A111C A120C A145C C150U C169A U176A | 0.0125
C82G A111C A120C A145C C150U C169A U176C | 0.00824
C82G A111C A120C A145C C150U C169A U176G | 0.00692
C82G A111C A120C A145C C150U C169G | 0.00697
C82G A111C A120C A145C C150U C169G U176A | 0.0246
C82G A111C A120C A145C C150U C169G U176C | 0.0168
C82G A111C A120C A145C C150U C169G U176G | 0.00745
C82G A111C A120C A145C C150U C169U | 0.011
C82G A111C A120C A145C C150U C169U U176A | 0.0131
C82G A111C A120C A145C C150U C169U U176C | 0.0133
C82G A111C A120C A145C C150U C169U U176G | 0.0064
C82G A111C A120C A145C C150U U176A | 0.0114
C82G A111C A120C A145C C150U U176C | 0.0129
C82G A111C A120C A145C C150U U176G | 0.00681
C82G A111C A120C A145C C169A | 0.00657

Variant | reverse-splicing fitness
C82G A111C A120C A145C C169A U176A | 0.0175
C82G A111C A120C A145C C169A U176C | 0.0118
C82G A111C A120C A145C C169A U176G | 0.0064
C82G A111C A120C A145C C169G | 0.00843
C82G A111C A120C A145C C169G U176A | 0.0259
C82G A111C A120C A145C C169G U176C | 0.0205
C82G A111C A120C A145C C169G U176G | 0.0061
C82G A111C A120C A145C C169U | 0.0151
C82G A111C A120C A145C C169U U176A | 0.0165
C82G A111C A120C A145C C169U U176C | 0.0151
C82G A111C A120C A145C C169U U176G | 0.00508
C82G A111C A120C A145C U176A | 0.0166
C82G A111C A120C A145C U176C | 0.0241
C82G A111C A120C A145C U176G | 0.00711
C82G A111C A120C A145G | 0.053
C82G A111C A120C A145G C150A | 0.0148
C82G A111C A120C A145G C150A C169A | 0.0122
C82G A111C A120C A145G C150A C169A U176A | 0.0165
C82G A111C A120C A145G C150A C169A U176C | 0.0188
C82G A111C A120C A145G C150A C169A U176G | 0.00862
C82G A111C A120C A145G C150A C169G | 0.00768

Variant | reverse-splicing fitness
C82G A111C A120C A145G C150A C169G U176A | 0.0156
C82G A111C A120C A145G C150A C169G U176C | 0.0228
C82G A111C A120C A145G C150A C169G U176G | 0.00768
C82G A111C A120C A145G C150A C169U | 0.0117
C82G A111C A120C A145G C150A C169U U176A | 0.0157
C82G A111C A120C A145G C150A C169U U176C | 0.0139
C82G A111C A120C A145G C150A C169U U176G | 0.00795
C82G A111C A120C A145G C150A U176A | 0.0118
C82G A111C A120C A145G C150A U176C | 0.0234
C82G A111C A120C A145G C150A U176G | 0.00711
C82G A111C A120C A145G C150G | 0.0102
C82G A111C A120C A145G C150G C169A | 0.00885
C82G A111C A120C A145G C150G C169A U176A | 0.0142
C82G A111C A120C A145G C150G C169A U176C | 0.0127
C82G A111C A120C A145G C150G C169A U176G | 0.0086
C82G A111C A120C A145G C150G C169G | 0.00708
C82G A111C A120C A145G C150G C169G U176A | 0.0118
C82G A111C A120C A145G C150G C169G U176C | 0.0138
C82G A111C A120C A145G C150G C169G U176G | 0.0062
C82G A111C A120C A145G C150G C169U | 0.00874
C82G A111C A120C A145G C150G C169U U176A | 0.0116

Variant | reverse-splicing fitness
C82G A111C A120C A145G C150G C169U U176C | 0.0117
C82G A111C A120C A145G C150G C169U U176G | 0.0072
C82G A111C A120C A145G C150G U176A | 0.00652
C82G A111C A120C A145G C150G U176C | 0.0113
C82G A111C A120C A145G C150G U176G | 0.00667
C82G A111C A120C A145G C150U | 0.0408
C82G A111C A120C A145G C150U C169A | 0.0101
C82G A111C A120C A145G C150U C169A U176A | 0.0153
C82G A111C A120C A145G C150U C169A U176C | 0.0142
C82G A111C A120C A145G C150U C169A U176G | 0.00796
C82G A111C A120C A145G C150U C169G | 0.00759
C82G A111C A120C A145G C150U C169G U176A | 0.0122
C82G A111C A120C A145G C150U C169G U176C | 0.0162
C82G A111C A120C A145G C150U C169G U176G | 0.00699
C82G A111C A120C A145G C150U C169U | 0.0124
C82G A111C A120C A145G C150U C169U U176A | 0.0156
C82G A111C A120C A145G C150U C169U U176C | 0.0131
C82G A111C A120C A145G C150U C169U U176G | 0.00732
C82G A111C A120C A145G C150U U176A | 0.0138
C82G A111C A120C A145G C150U U176C | 0.0215
